Data set [1] concerns Biosyn#7 (HRV) Dabcyl-LEALFQGP[Asp-(EDANS) SQ [Amide].
Data set [2] deals with T1, Biosyn#1 (cov19) Dabcyl-TSAVLQSGFRK-EDANS.
T1 sequence: TSAVLQSGFRK

Data set [3] relates to T2, Biosyn#6 (229e) Dabcyl-YGSTLQAGLRK-EDANS.
T2 sequence: YGSTLQAGLRK

With Human Rhinovirus (HRV) 3C protease, the % Enz activity worked out at 1%; the Enzymatic activity, Slope; 5 uM substrate, 150 ng/reaction enzyme worked out at 87 RFU/min; the “enzymatic activity, in words” value is given as “Complete specificity (no cross reactivity) was observed for the most abundant common cold virus, HRV”. Besides, in data set [1], the % Enz activity was found to be 100%; the Enzymatic activity, Slope; 5 uM substrate, 150 ng/reaction enzyme is 1040 RFU/min; the “enzymatic activity, in words” value is “The Biosyn #7 substrate was specific for HRV”. Also, in data set [2], the % Enz activity is -1%; the Enzymatic activity, Slope; 5 uM substrate, 150 ng/reaction enzyme is -12 RFU/min; the “enzymatic activity, in words” value was “Complete specificity (no cross reactivity) was observed for the most abundant common cold virus, HRV”. For the same substance, in data set [3], the % Enz activity was -7%; the Enzymatic activity, Slope; 5 uM substrate, 150 ng/reaction enzyme was 44 RFU/min; the “enzymatic activity, in words” value was “Complete specificity (no cross reactivity) was observed for the most abundant common cold virus, HRV”.

The values are drawn from patent US20230090502.
